Data on one molecule can be found in PMC6389893.

What all share (test): pull-down; GST fusion proteins (2 µg) on agarose beads, nuclease-treated, with in vitro translated [35S]-TRIM33; NETN buffer (20 mM Tris HCl pH 7.5, 100 mM NaCl, 1 mM EDTA, 0.5% NP-40, 1 mM DTT) with 200 µg/ml ethidium bromide, 1 h at 4 °C; phosphoimaging, bound as percent of input
Assay [1] deals with GST-IN C-terminal domain (HIV-1).
Assay [2] has as its target GST-IN N-terminal domain (HIV-1).
The target of assay [3] is GST-IN full length (HIV-1).
The target in assay [4] is GST-IN catalytic core domain (HIV-1).

B1: in vitro translated [35S]-TRIM33 (natural protein)
chain: MAENKGGGEAESGGGGSGSAPVTAGAAGPAAQEAEPPLTAVLVEEEEEEGGRAGAEGGAAGPDDGGVAAASSGSAQAASSPAASVGTGVAGGAVSTPAPAPASAPAPGPSAGPPPGPPASLLDTCAVCQQSLQSRREAEPKLLPCLHSFCLRCLPEPERQLSVPIPGGSNGDIQQVGVIRCPVCRQECRQIDLVDNYFVKDTSEAPSSSDEKSEQVCTSCEDNASAVGFCVECGEWLCKTCIEAHQRVKFTKDHLIRKKEDVSESVGASGQRPVFCPVHKQEQLKLFCETCDRLTCRDCQLLEHKEHRYQFLEEAFQNQKGAIENLLAKLLEKKNYVHFAATQVQNRIKEVNETNKRVEQEIKVAIFTLINEINKKGKSLLQQLENVTKERQMKLLQQQNDITGLSRQVKHVMNFTNWAIASGSSTALLYSKRLITFQLRHILKARCDPVPAANGAIRFHCDPTFWAKNVVNLGNLVIESKPAPGYTPNVVVGQVPPGTNHISKTPGQINLAQLRLQHMQQQVYAQKHQQLQQMRMQQPPAPVPTTTTTTQQHPRQAAPQMLQQQPPRLISVQTMQRGNMNCGAFQAHQMRLAQNAARIPGIPRHSGPQYSMMQPHLQRQHSNPGHAGPFPVVSVHNTTINPTSPTTATMANANRGPTSPSVTAIELIPSVTNPENLPSLPDIPPIQLEDAGSSSLDNLLSRYISGSHLPPQPTSTMNPSPGPSALSPGSSGLSNSHTPVRPPSTSSTGSRGSCGSSGRTAEKTSLSFKSDQVKVKQEPGTEDEICSFSGGVKQEKTEDGRRSACMLSSPESSLTPPLSTNLHLESELDALASLENHVKIEPADMNESCKQSGLSSLVNGKSPIRSLMHRSARIGGDGNNKDDDPNEDWCAVCQNGGDLLCCEKCPKVFHLTCHVPTLLSFPSGDWICTFCRDIGKPEVEYDCDNLQHSKKGKTAQGLSPVDQRKCERLLLYLYCHELSIEFQEPVPASIPNYYKIIKKPMDLSTVKKKLQKKHSQHYQIPDDFVADVRLIFKNCERFNEMMKVVQVYADTQEINLKADSEVAQAGKAVALYFEDKLTEIYSDRTFAPLPEFEQEEDDGEVTEDSDEDFIQPRRKRLKSDERPVHIK
modifications: [35S]-labeled
Regarding B1, the percent of radiolabeled input bound in assay [1] was above 8.5%; in assay [2], below 3%; in assay [3] it was above 8.5%; in assay [4], below 3%.
